Reference: paper PMC8626583, “Collagen’s primary structure determines collagen:HSP47 complex stoichiometry” (The Journal of Biological Chemistry, 2021)
“And” between values parts separate entries of the source, which are not always exact repeats. Identical values can stand only once.

Columns and labels:
[1] = biological target: T1, foldon-stabilized collagen model peptide with the guest GPRGFP; experiment: AUC; sedimentation velocity with fluorescence detection; ATTO488-labelled foldon CMP at 1 μM with HSP47 at ratios (CMP:HSP47) 1:1 to 1:20; 20 mM HEPES, 150 mM NaCl pH 7.5; 42,000 rpm
[2] = biological target: T2, foldon-stabilized collagen model peptide with the guest GPRGPP; experiment: as above
[3] = biological target: T1, foldon-stabilized collagen model …; experiment: ELISA; collagen model peptides or collagen I coated on Nunc MaxiSorp (500 ng/well), blocked with 1% BSA in TBS; soluble HSP47 in a 1:4 dilution series from 8 or 10 μM; detected by anti-His-HRP; triplicates, four-parameter logistic fit
[4] = biological target: T2, foldon-stabilized collagen model …; experiment: as above

B1: HSP47 (heat shock protein 47), Canis lupus, residues 36-418 with C-terminal hexahistidine tag, C7C419 36-418 (natural protein)
chain: LSPKAATLAERSAGLAFSLYQAMAKDQAVENILLSPVVVASSLGLVSLGGKATTASQAKAVLSAEQLRDEEVHAGLGELLRSLSNSTARNVTWKLGSRLYGPSSVSFAEDFVRSSKQHYNCEHSKINFRDKRSALQSINEWAAQTTDGKLPEVTKDVERTDGALLVNAMFFKPHWDEKFHHKMVDNRGFMVTRSYTVGVTMMHRTGLYNYYDDEKEKLQIVEMPLAHKLSSLIILMPHHVEPLERLEKLLTKEQLKIWMGKMQKKAVAISLPKGVVEVTHDLQKHLAGLGLTEAIDKNKADLSRMSGKKDLYLASVFHATAFEWDTEGNPFDQDIYGREELRSPKLFYADHPFIFLVRDTQSGSLLFIGRLVRPKGDKMRDEL
stoichiometry N (HSP47 per CMP trimer) [1]: 1 | stoichiometry N (HSP47 per CMP trimer) [2]: 2 | Kd [3]: 12 nM | Kd [4]: 36 nM and 21.7 nM
